# Test results published in patent publication US20230151110A1 (HUTCHISON MEDIPHARMA, published 2023).
# What was measured:
# [1] = molecular target: T1, human CD47 protein on the cell surface (human, UniProt Q08722 19-323); experiment: FACS on Raji cells (endogenous human CD47); negative control
# T1 construct: whole, on cells; One molecule is used for overexpressed (CHO-K1) and endogenous (Raji, Toledo, REC-1, red blood cells) human CD47; the cell is named under assay; also called CD47 on the surface of Raji, Toledo, REC-1 cells; CD47 on the surface of human red blood cells
# [2] = molecular target: T1, human CD47 protein on the cell surface; experiment: FACS on REC-1 cells (endogenous human CD47); negative control
# [3] = molecular target: T1, human CD47 protein on the cell surface; experiment: FACS on Toledo cells (endogenous human CD47); negative control
# [4] = molecular target: CD47 on the surface of cynomolgus monkey B cells (cynomolgus monkey); experiment: FACS on cynomolgus monkey B cells, antibody 66.7 nM; negative control
# [5] = molecular target: T2, CD47 on the surface of cynomolgus monkey B cells (cynomolgus monkey, UniProt A0A5F8AK49 19-323 (rhesus entry)); experiment: FACS on cynomolgus monkey B cells, antibody 66.7 nM
# T2 construct: whole, on cells; also called cynomolgus monkey CD47
# Text: The cells were washed three times and analyzed by flow cytometry.
# [6] = molecular target: T1, human CD47 protein on the cell surface; experiment: FACS on Raji cells (endogenous human CD47)
# Experimental: (§1) Human CD47 was endogenously expressed on the cell surface of human Burkitt lymphoma cell line Raji. […] The diluted antibodies were mixed with and co-incubated with Raji cells (purchased from ATCC) (5*10⁵ cells/well) at 4° C. for 1 hour. […] The cells were washed three times with PBS containing 2% fetal bovine serum (FBS), and then the fluorescence signal was detected by CantoII (BD Biosciences) flow cytometry, and according to the average fluorescence intensity (MFI) of the signal, GraphPad was used for fitting a concentration dependent curve, and the EC₅₀ was calculated.
# [7] = molecular target: T1, human CD47 protein on the cell surface; experiment: FACS on REC-1 cells (endogenous human CD47)
# Experimental: as §1
# [8] = molecular target: T1, human CD47 protein on the cell surface; experiment: FACS on Toledo cells (endogenous human CD47)
# Experimental: as §1
# [9] = molecular target: T1, human CD47 protein on the cell surface; experiment: FACS on human red blood cells (endogenous CD47)
# Experimental: The cells were washed three times with PBS containing 2% fetal bovine serum (FBS), and then the fluorescence signal was detected by Canto II (BD Biosciences) flow cytometry. According to the average fluorescence intensity (MFI) of the signal, GraphPad was used for fitting a concentration dependent curve, and the EC₅₀ was calculated.
# [10] = molecular target: T3, recombinant protein hCD47-Fc containing the extracellular domain of human CD47 fused with the Fc fragment of … (human, UniProt Q08722 19-139); experiment: competition ELISA as in Example 1.3: hCD47-Fc coated, SIRPα-His as competitor ligand, anti-His-HRP
# T3 construct: extracellular domain; Bought reagent; also called ACROBiosystems Cat: CD7-H5256; not shown: Fc fragment of human IgG
# [11] = molecular target: T4, human CD47-His fusion protein (human, UniProt Q08722 19-139); experiment: SPR (Biacore T200): antibody captured by anti-human Fc on CM5, human CD47-His as analyte, 1:1 Langmuir fit
# T4 construct: Bought reagent; also called ACROBiosystems Cat: CD7-H5227; not shown: His tag
# [12] = molecular target: T1, human CD47 protein on the cell surface; experiment: FACS on CHO-K1 cells overexpressing human CD47
# Experimental: A human CD47 protein (NCBI accession number: NP_001768.1) was overexpressed in hamster ovary cell line CHO-K1 to establish CHO-K1 cell line overexpressing the human CD47 protein. […] After washing twice with iced PBS, the cells were incubated with an iFluor647-labeled goat anti-mouse IgG (H+L) antibody (Genscript) at 4° C. in the dark for 40 minutes. The cells were washed twice with iced PBS, and then the fluorescence signal was detected by Calibur (BD Biosciences) flow cytometry, and according to the average fluorescence intensity (MFI) of the signal, GraphPad was used for fitting a concentration dependent curve, and the EC₅₀ was calculated.
# [13] = molecular target: T1, human CD47 protein on the cell surface; experiment: FACS on Raji cells (endogenous human CD47), n = 3
# Experimental: as §1
# [14] = molecular target: T3, recombinant protein hCD47-Fc containing …; experiment: competition ELISA: hCD47-Fc coated, SIRPα-His 2.5 µg/ml as competitor ligand, anti-His-HRP
# Experimental: The recombinant protein hCD47-Fc containing the extracellular domain of human CD47 fused with the Fc fragment of human IgG (ACROBiosystems, Cat: CD7-H5256) was coated onto a 96-well plate and incubated overnight at 4° C. After the plate was washed 3 times with PBST (PBS containing 0.5% Tween-20), PBST containing 1% BSA was added for blocking the plate for 2 hours. […] After the 96-well plate was incubated at 37° C. for 30 minutes, the plate was washed 5 times with PBST, and a TMD (Surmodics, Cat: TMBW-1000-01) developing solution was added, and was incubated in the dark for 15 minutes. 2N H₂SO₄ was added to terminate the color-developing reaction. OD₄₅₀ was read on a microplate reader.
Molecule,Max MFI [5],"Max MFI compared with Ch-125G4m-m35 value, % [5]",other results
"negative isotype control antibody (isotype), human IgG4P",,,Max MFI [1]: 175 MFI; Max MFI [2]: 265 MFI; Max MFI [3]: 50 MFI; Max MFI [4]: 53 MFI
"control antibody Hu5F9 (antibody, V domains shown) VH: QVQLVQSGAEVKKPGASVKVSCKASGYTFTNYNMHWVRQAPGQRLEWMGTIYPGNDDTSYNQKFKDRVTITADTSASTAYMELSSLRSEDTAVYYCARGGYRAMDYWGQGTLVTVSS VL: DIVMTQSPLSLPVTPGEPASISCRSSQSIVYSNGNTYLGWYLQKPGQSPQLLIYKVSNRFSGVPDRFSGSGSGTDFTLKISRVEAEDVGVYYCFQGSHVPYTFGQGTKLEIK",4120 MFI,90%,
"chimeric antibody Ch-125G4-m35 (antibody, V domains shown, Chimeric antibody with human IgG4 (S228P) heavy chain constant region and human kappa light chain constant region; PTM sites mutated (NSS to QSS in the heavy chain, DG to EG in the light chain); also called Ch-125G4m-m35; 125G4A4m) VH: QVQLQQSGTELAKPGASVKMSCKASGYTFTSYYMHWVKQRPGQILEWIGYIDPANDYSDYNQNFKDKATLTADKSSRTTYMQLTSLTSEDSAVYYCARLGYGQSSPFDYWGQGTTLIVSS VL: DIKMTQSPSSMYASVGERVTITCKASQDIHNYLSWFQQKPGKSPKTLIYRAKRLVEGVPLRFSGSGSGQDYSLTISSLEYEDMGIYFCLQYDELYTFGGGTRLEIK",4550 MFI,100%,
"Hu-125G4A4m-43 (antibody, V domains shown, Humanized antibody, IgG4 S228P (IgG4P) subtype) VH: QVQLVQSGAEVKKPGSSVKVSCKASGYTFTSYYMHWVRQAPGQGLEWMGYIDPANDYSDYNQNFKDRVTITADKSTRTTYMELTSLRSEDTAVYYCARLGYGQSSPFDYWGQGTTVTVSS VL: DIQMTQSPSSLSASVGDRVTITCKASQDIHNYLSWFQQKPGKAPKSLIYRAKRLVEGVPSRFSGSGSGQDYTLTISSLQPEDFATYYCLQYDELYTFGQGTRLEIK",3260 MFI,72%,
"Hu-125G4A4m-44 (antibody, V domains shown, Humanized antibody, IgG4 S228P (IgG4P) subtype) VH: QVQLVQSGAEVKKPGSSVKVSCKASGYTFTSYYMHWVRQAPGQGLEWMGYIDPANDYSDYNQNFKDRVTITADKSTRTTYMELTSLRSEDTAVYYCARLGYGQSSPFDYWGQGTTVTVSS VL: DIKMTQSPSSLSASVGDRVTITCKASQDIHNYLSWFQQKPGKAPKTLIYRAKRLVEGVPLRFSGSGSGQDYTLTISSLQPEDFATYFCLQYDELYTFGQGTRLEIK",4510 MFI,99%,
"Hu-125G4A4m-45 (antibody, V domains shown, Humanized antibody, IgG4 S228P (IgG4P) subtype) VH: QVQLVQSGAEVKKPGSSVKVSCKASGYTFTSYYMHWVRQAPGQGLEWMGYIDPANDYSDYNQNFKDRVTITADKSTRTAYMELTSLRSEDTAVYYCARLGYGQSSPFDYWGQGTTVTVSS VL: DIQMTQSPSSLSASVGDRVTITCKASQDIHNYLSWFQQKPGKAPKSLIYRAKRLVEGVPSRFSGSGSGTDYTLTISSLQPEDFATYYCLQYDELYTFGQGTRLEIK",2630 MFI,58%,
"Hu-125G4A4m-46 (antibody, V domains shown, Humanized antibody, IgG4 S228P (IgG4P) subtype) VH: QVQLVQSGAEVKKPGSSVKVSCKASGYTFTSYYMHWVRQAPGQGLEWMGYIDPANDYSDYNQNFKDRVTITADKSTRTAYMELTSLRSEDTAVYYCARLGYGQSSPFDYWGQGTTVTVSS VL: DIQMTQSPSSLSASVGDRVTITCKASQDIHNYLSWFQQKPGKAPKSLIYRAKRLVEGVPSRFSGSGSGQDYTLTISSLQPEDFATYYCLQYDELYTFGQGTRLEIK",2520 MFI,55%,
"Hu-125G4A4m-47 (antibody, V domains shown, Humanized antibody, IgG4 S228P (IgG4P) subtype) VH: QVQLVQSGAEVKKPGSSVKVSCKASGYTFTSYYMHWVRQAPGQGLEWMGYIDPANDYSDYNQNFKDRVTITADKSTRTAYMELTSLRSEDTAVYYCARLGYGQSSPFDYWGQGTTVTVSS VL: DIKMTQSPSSLSASVGDRVTITCKASQDIHNYLSWFQQKPGKAPKTLIYRAKRLVEGVPLRFSGSGSGQDYTLTISSLQPEDFATYFCLQYDELYTFGQGTRLEIK",4100 MFI,90%,
"Hu-125G4A4m-49 (antibody, V domains shown, Humanized antibody, IgG4 S228P (IgG4P) subtype) VH: QVQLVQSGAEVKKPGSSVKVSCKASGYTFTSYYMHWVRQAPGQGLEWMGYIDPANDYSDYNQNFKDRATLTADKSTRTTYMELTSLRSEDTAVYYCARLGYGQSSPFDYWGQGTTVTVSS VL: DIQMTQSPSSLSASVGDRVTITCKASQDIHNYLSWFQQKPGKAPKSLIYRAKRLVEGVPSRFSGSGSGQDYTLTISSLQPEDFATYYCLQYDELYTFGQGTRLEIK",4080 MFI,90%,
"Hu-125G4A4m-50 (antibody, V domains shown, Humanized antibody, IgG4 S228P (IgG4P) subtype) VH: QVQLVQSGAEVKKPGSSVKVSCKASGYTFTSYYMHWVRQAPGQGLEWMGYIDPANDYSDYNQNFKDRATLTADKSTRTTYMELTSLRSEDTAVYYCARLGYGQSSPFDYWGQGTTVTVSS VL: DIKMTQSPSSLSASVGDRVTITCKASQDIHNYLSWFQQKPGKAPKTLIYRAKRLVEGVPLRFSGSGSGQDYTLTISSLQPEDFATYFCLQYDELYTFGQGTRLEIK",4840 MFI,106%,
"humanized antibody HMA02h14-48 (antibody, V domains shown, Humanized antibody, IgG4 S228P (IgG4P) subtype; also called Hu-125G4A4m-48; Hu-125G4A4-48) VH: QVQLVQSGAEVKKPGSSVKVSCKASGYTFTSYYMHWVRQAPGQGLEWMGYIDPANDYSDYNQNFKDRATLTADKSTRTTYMELTSLRSEDTAVYYCARLGYGQSSPFDYWGQGTTVTVSS VL: DIQMTQSPSSLSASVGDRVTITCKASQDIHNYLSWFQQKPGKAPKSLIYRAKRLVEGVPSRFSGSGSGTDYTLTISSLQPEDFATYYCLQYDELYTFGQGTRLEIK",4200 MFI,92%,EC50 [6]: 1.2 nM; EC50 [7]: 0.6 nM; EC50 [8]: 2.2 nM; EC50 [9]: 3.9 nM; IC50 [10]: 1.58 nM; Kd [11]: 0.777 nM
"hybridoma-derived antibody 125G4A4 (antibody, V domains shown, Mouse antibody purified from hybridoma supernatant on Protein A) VH: QVQLQQSGTELAKPGASVKMSCKASGYTFTSYYMHWVKQRPGQILEWIGYIDPANDYSDYNQNFKDKATLTADKSSRTTYMQLTSLTSEDSAVYYCARLGYGNSSPFDYWGQGTTLIVSS VL: DIKMTQSPSSMYASVGERVTITCKASQDIHNYLSWFQQKPGKSPKTLIYRAKRLVDGVPLRFSGSGSGQDYSLTISSLEYEDMGIYFCLQYDELYTFGGGTRLEIK",,,EC50 [12]: 0.22 nM; EC50 [13]: 0.84 nM; IC50 [14]: 3.06 nM
